According to patent US20210332110A1 (ROCKEFELLER UNIVERSITY, published 2021):

B1: C144 (antibody, V domains shown)
VH: EVQLVESGGGLIQPGGSLRLSCAASGFTVSNNYMSWVRQAPGKGLEWVSVIYSGGSTYYADSVKGRFTISRDKSKNTLYLQMNRLRAEDTAVYYCAREGEVEGYNDFWSGYSRDRYYFDYWGQGTLVTVSS
VL: QSALTQPASVSGSPGQSITISCTGTSSDVGGYNYVSWYQQHPGKAPKLMIYDVSNRPSGVSNRFSGSKSGNTASLTISGLQAEDEADYYCSSYTSSSTRVFGTGTKVTVL
B2: C121 (antibody, V domains shown)
VH: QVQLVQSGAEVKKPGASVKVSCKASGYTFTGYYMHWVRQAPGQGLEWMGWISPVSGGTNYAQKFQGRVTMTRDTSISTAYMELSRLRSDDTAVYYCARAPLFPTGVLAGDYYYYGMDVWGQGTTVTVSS
VL: QSALTQPASVSGSPGQSITISCTGTSSDVGSYNLVSWYQQHPGKAPKLMIYEGSKRPSGVSNRFSGSKSGNTASLTISGLQAEDEADYYCCSYAGSSTLVFGGGTKLTVL

Biological target: Spike (S) protein of authentic SARS-CoV-2, strain USA-WA1/2020 (SARS-CoV-2, UniProt P0DTC2 14-1273)
Assay: cell-based or functional assay

Row | Binder | IC50, neutralization of authentic SARS-CoV-2
1 | B1 | 2.55 ng/mL
2 | B2 | 1.64 ng/mL
